{"source": "patent US6013288A", "about": "“Process for manufacturing beer” (Suntory Limited, priority 1995, dated 2000)", "molecules": {"B1": {"name": "nucleoside phosphorylase derived from calf spleen: Nucleoside phosphorylase derived from calf spleen (Boehringer), EC 2.4.2.1 (protein, UniProt P55859 1-289, looked up)", "Purine nucleoside …": "MANGYTYEDYQDTAKWLLSHTEQRPQVAVICGSGLGGLVNKLTQAQTFDYSEIPNFPESTVPGHAGRLVFGILNGRACVMMQGRFHMYEGYPFWKVTFPVRVFRLLGVETLVVTNAAGGLNPNFEVGDIMLIRDHINLPGFSGENPLRGPNEERFGVRFPAMSDAYDRDMRQKAHSTWKQMGEQRELQEGTYVMLGGPNFETVAECRLLRNLGADAVGMSTVPEVIVARHCGLRVFGFSLITNKVIMDYESQGKANHEEVLEAGKQAAQKLEQFVSLLMASIPVSGHTG"}}, "experiment": "Decomposition of purine nucleosides in wort by nucleoside phosphorylase", "type": "biochemical", "settings": "7 units/ml, 3 hours at 30° C., wort extract concentration 12.5%", "experimental": "Nucleoside phosphorylase derived from calf spleen (Boehringer) was added to wort having an extract concentration of 12.5% to a concentration of 7 units/ml, and allowed to react for 3 hours at 30° C. The amount of purine compounds in the wort to which enzyme was added and a wort held for 3 hours at 30° C. without adding enzyme as the control were measured using the method described in Experiment 1.", "data": [{"molecule": "B1", "values": [{"measurement": "decomposition ratio of each purine nucleoside", "result": "roughly 60%"}]}]}
